Drawing on paper PMC1182371, this text covers binding for two sequences.

This series concerns the target KLF15-ZF-GST (human) (UniProt Q9UIH9). Description: DNase I footprinting. The conditions noted are these: EMSA: 4 mM HEPES, 5 mM EGTA, 100 mM KCl, 0.25 mM ZnCl2, 0.02% NP40, 0.1 M DTT, 4% glycerol, 90-120 min on ice, pH not stated, footprinting: same buffer.

Chain of KLF15-ZF-GST (human) (Q9UIH9 294-416): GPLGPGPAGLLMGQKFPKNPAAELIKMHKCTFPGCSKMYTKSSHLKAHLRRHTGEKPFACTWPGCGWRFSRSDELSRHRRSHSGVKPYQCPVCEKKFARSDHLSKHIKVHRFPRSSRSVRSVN

Consider “GAAGTGACCTCCCCTCCCTAAGCTCCCGGCTGAATCAGCACCTCGGAGATTGGGGGCGTTATTAATCATATTAATCCTCACTGCTGCAACGAGGGGCTTAATTGGCTTCCAGGTGGGGCCAAGGTGACTCCAGGTAGAAGGCTGTGGTCGGGGAGAAGGCGGGGCGTGCTGGGGACCCTGGGAAAGAGCAGAGGCCTGCCCCCAACTCCCCTGTCCCCCTCTGGCATCTCAGCTGATGGCCCTGGCCTGGCATTGGGACCCCTAGCTCTAGGCCCACTTCCCTCT (double strand) [bovine Rho -315 to -31]”, for which the binding result is listed as “binds”.

Turning to “CGCCGGCGGCGCGAACCCGGGGATGCTTCTGAGGCCGGAGCTCAGCCACACGGGGCTCCGGCTGGACGACTCGTGGCTCCAACTCCCCCCCCAGGCCCTTATGAAGTGACCTCCCCTCCCTAAGCTCCCGGCTGAATCAGCACCTCGGAGATTGGGGGCGTTATTAATCATATTAATCCTCACTGCTGCAACGAGGGGCTTAATTGGCTTCCAGGTGGGGCCAAGGTGACTCCAGGTAGAAGGCTGTGGTCGGGGAGAAGGCGGGGCGTGCTGGGGACCCTGGGAAAGAGCAGAGGCCT (double strand) [bovine Rho -225 to +70]”, the binding entry is listed as “binds”.
